Source: patent publication US20200390859A1

Molecular target: mouse FGFR4/β-klotho complex co-expressed in rat L6 myoblast cells (mouse) (UniProt Q03142)
Assay: cell-based or functional assay

Chain of mouse FGFR4/β-klotho complex co-expressed in rat L6 myoblast cells (mouse) (Q03142 17-799, chain 1 of 2): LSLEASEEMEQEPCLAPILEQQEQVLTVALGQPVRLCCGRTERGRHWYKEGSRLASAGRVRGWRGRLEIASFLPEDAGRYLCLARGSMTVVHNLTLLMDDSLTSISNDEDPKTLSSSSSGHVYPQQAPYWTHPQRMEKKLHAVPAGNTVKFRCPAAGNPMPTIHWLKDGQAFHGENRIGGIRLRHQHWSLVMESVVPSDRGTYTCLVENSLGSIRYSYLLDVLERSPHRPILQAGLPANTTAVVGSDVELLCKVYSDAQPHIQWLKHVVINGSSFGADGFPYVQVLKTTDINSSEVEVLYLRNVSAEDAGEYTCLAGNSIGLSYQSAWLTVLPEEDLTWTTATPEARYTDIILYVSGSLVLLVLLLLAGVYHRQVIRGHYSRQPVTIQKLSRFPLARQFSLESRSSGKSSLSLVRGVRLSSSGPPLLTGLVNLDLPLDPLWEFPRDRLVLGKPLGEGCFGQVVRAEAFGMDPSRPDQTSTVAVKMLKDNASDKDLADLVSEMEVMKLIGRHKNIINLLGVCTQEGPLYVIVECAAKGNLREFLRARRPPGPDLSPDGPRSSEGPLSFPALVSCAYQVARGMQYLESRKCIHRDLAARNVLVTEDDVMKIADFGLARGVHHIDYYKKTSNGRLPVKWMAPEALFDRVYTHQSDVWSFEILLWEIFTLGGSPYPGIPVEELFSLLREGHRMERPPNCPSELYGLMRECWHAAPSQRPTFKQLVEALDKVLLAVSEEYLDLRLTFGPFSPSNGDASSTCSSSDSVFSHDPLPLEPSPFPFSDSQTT
Chain of mouse FGFR4/β-klotho complex co-expressed in rat L6 myoblast cells (mouse) (Q99N32 whole entry, chain 2 of 2, further chain): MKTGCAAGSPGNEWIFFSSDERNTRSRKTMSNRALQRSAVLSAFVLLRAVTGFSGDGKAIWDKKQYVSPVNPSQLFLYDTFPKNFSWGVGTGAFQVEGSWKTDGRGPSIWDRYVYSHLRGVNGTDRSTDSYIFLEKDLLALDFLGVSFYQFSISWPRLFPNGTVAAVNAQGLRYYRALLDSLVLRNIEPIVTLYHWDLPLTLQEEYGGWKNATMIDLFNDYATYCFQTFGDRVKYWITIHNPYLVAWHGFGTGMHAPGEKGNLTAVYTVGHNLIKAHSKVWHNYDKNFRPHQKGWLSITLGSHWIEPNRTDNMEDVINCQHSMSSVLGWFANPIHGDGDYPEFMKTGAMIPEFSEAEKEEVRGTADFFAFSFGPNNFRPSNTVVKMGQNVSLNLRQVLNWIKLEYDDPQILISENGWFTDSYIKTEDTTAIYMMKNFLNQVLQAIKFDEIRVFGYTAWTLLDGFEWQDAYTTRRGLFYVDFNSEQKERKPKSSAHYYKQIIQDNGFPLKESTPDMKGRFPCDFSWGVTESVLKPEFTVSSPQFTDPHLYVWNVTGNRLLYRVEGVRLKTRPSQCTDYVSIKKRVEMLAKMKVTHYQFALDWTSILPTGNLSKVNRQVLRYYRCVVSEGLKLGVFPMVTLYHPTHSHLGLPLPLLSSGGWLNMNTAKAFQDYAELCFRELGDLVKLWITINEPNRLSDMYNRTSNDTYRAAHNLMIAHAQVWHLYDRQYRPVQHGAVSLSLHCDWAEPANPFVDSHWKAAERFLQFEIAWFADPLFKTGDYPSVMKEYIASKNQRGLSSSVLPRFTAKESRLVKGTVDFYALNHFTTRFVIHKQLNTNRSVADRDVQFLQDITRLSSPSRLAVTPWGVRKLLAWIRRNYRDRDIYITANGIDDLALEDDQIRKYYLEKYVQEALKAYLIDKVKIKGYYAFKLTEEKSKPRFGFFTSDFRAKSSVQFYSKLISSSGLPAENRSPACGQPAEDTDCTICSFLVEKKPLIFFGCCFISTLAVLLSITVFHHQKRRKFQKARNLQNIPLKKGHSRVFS

EC50 (pM), ELK1 luciferase reporter in L6 cells transfected with mouse FGFR4 and β-klotho: 52.5 pM
Emax (fold potentiation), ELK1 luciferase reporter in L6 cells transfected with mouse FGFR4 and β-klotho (fold potentiation): 1.82
Substance: FGF19 (human fibroblast growth factor 19, wild type) (from UniProt O95750 25-216) (ligand)
